According to patent US12233115B2, “Long-acting parathyroid hormone” (Extend Biosciences, Inc., priority 2022, dated 2025):
Values joined by “and” are separate entries in the source; they are usually repeats but may differ in a detail not shown here. Equal values may be shown once.

Key:
[1] = Single dose pharmacokinetics of EXT607 in male rats; conditions: in vivo, rat
Experimental: In a single dose pharmacokinetic study, EXT607 was formulated in PBS and groups of male rats (n=3) were dosed at a volume of 1 ml/kg as follows: Group 1, 100 μg/kg intravenous; Group 2, 30 μg/kg subcutaneous; Group 3, 100 μg/kg subcutaneous; Group 4, 300 μg/kg subcutaneous. Blood (0.25 mL) was collected via the jugular vein cannula, transferred into tubes containing K2EDTA, and kept on wet ice until processed for plasma. Blood samples were collected at 0 (predose), 0.083 (IV only), 0.25, 0.5, 1, 2, 4, 6, 8, 12, 24, 36, 48, 60 and 72 h postdose.
(§1) Pharmacokinetic parameters were determined from the plasma concentration versus time data (Table 4) by a non-compartmental analysis with uniform weighting using Phoenix® WinNonlin® Version 6.3 (Certara L.P. (Pharsight), St. Louis, MO). The concentration versus time data were analyzed using the IV bolus or extravascular administration models. Best fit Lambda z ranges were used.

[2] = Single dose pharmacokinetics of EXT607 in male cynomolgus monkeys; type: in vivo; conditions: cynomolgus monkey
Experimental: In a single dose pharmacokinetic study, EXT607 was formulated in PBS and groups of male cynomolgus monkeys (n=3), weighing approximately 4 kg each, were dosed at a volume of 1 ml/kg as follows: Group 1, 20 μg/kg intravenous; Group 2, 7 μg/kg subcutaneous; Group 3, 20 μg/kg subcutaneous; Group 4, 70 μg/kg subcutaneous. Blood (1.0 mL) was collected via the jugular vein cannula, transferred into tubes containing K2EDTA, and kept on wet ice until processed for plasma. Blood samples were collected at 0 (pre-dose), 0.083 (IV only), 0.25, 0.5, 1, 2, 4, 6, 8, 12, 24, 36, 48, 60 and 72 h post-dose.
as §1, with “5)” for “4)”
At low doses, the rate of subcutaneous absorption is slower than at high doses, leading to a lower Cmax and an overall flatter PK profile.

[3] = test system: Thyroparathyroidectomized (TPTx) rats; assay: 28-day pharmacodynamic study in thyroparathyroidectomized (TPTx) rats; type: in vivo, rat; conditions: for % Increase in Serum Calcium, Cumulative: Days 1, 12, 27, relative to TPTx/vehicle; for increase in serum calcium compared to TPTx controls (in words): daily SC dosing (EXT607 1, 3, 10 nmol/kg; PTH peptides 10 nmol/kg); for decrease in serum phosphate (in words): daily SC dosing (EXT607 all dose levels; PTH peptides 10 nmol/kg), from Day 12
Excerpt: 28-day Pharmacodynamic Study of EXT607 in TPTx Rats. Thyroparathyroidectomized (TPTx) rats are a model for hypoparathyroidism. To produce TPTx rats, the thyroid and parathyroid glands were surgically resected and the rats were given L-thyroxine to compensate for the loss of their thyroid. Due to the absence of PTH, TPTx rats had lower levels of serum calcium and higher levels of serum phosphate.
Each group consisted of 10 female rats split into two cohorts of 5 animals for blood sampling purposes. On days 1, 12, and 27, blood (˜0.2 ml) was collected into serum separation tubes at t=0 (pre-dose), 2, 6, 10, and 24 h. The samples were processed into serum by standard methods and analyzed for serum total calcium and phosphate.
Calcium levels at 3 and 10 nmol/kg (20 and 60 μg/kg) were at or just below the normal range of calcium levels for healthy animals. […] For each timepoint, the percent increase in serum calcium relative to the TPTx vehicle control group (Group 2) was determined and daily averages were calculated (Table 9B). Over the three days sampled (Days 1, 12, and 27), […] increased serum calcium an average of 17, 28, and 37% at 1, 3, and 10 nmol/kg, respectively.
At each timepoint, the percent decrease in serum phosphate relative to the TPTx vehicle control group (Group 2) was determined, and daily averages were calculated (Table 9C).

[4] = 7 μg/kg SC relative to 70 μg/kg SC
[5] = 20 μg/kg SC relative to 70 μg/kg SC
[6] = in vivo, 7 ug/kg, single 7 μg/kg SC
[7] = in vivo, 20 ug/kg, single 20 μg/kg IV
[8] = in vivo, 20 ug/kg, single 20 μg/kg SC
[9] = in vivo, 70 ug/kg, single 70 μg/kg SC
[10] = 10 nmol/kg SC daily, Day 1, relative to TPTx/vehicle
[11] = 10 nmol/kg SC daily, Day 12, relative to TPTx/vehicle
[12] = 10 nmol/kg SC daily, Day 27, relative to TPTx/vehicle

Work on C=C1CC[C@H](OCCCNC(=O)CCOCCOCCOCCOCCOCCOCCOCCOCCOCCOCCOCCOCCOCCOCCOCCOCCOCCOCCOCCOCCOCCOCCOCCOCCOCCOCCOCCOCCOCCOCCOCCOCCOCCOCCOCCOCCNC(=O)CCN2C(=O)CC(SC[C@H](NC(=O)[C@H](Cc3ccccc3)NC(=O)[C@H](CC(N)=O)NC(=O)[C@H](Cc3c[nH]cn3)NC(=O)[C@@H](NC(=O)[C@H](CC(=O)O)NC(=O)[C@H](CCC(N)=O)NC(=O)[C@H](CC(C)C)NC(=O)[C@H](CCCCN)NC(=O)[C@H](CCCCN)NC(=O)[C@H](CCCNC(=N)N)NC(=O)[C@H](CC(C)C)NC(=O)[C@H](Cc3c[nH]c4ccccc34)NC(=O)[C@H](CCC(=O)O)NC(=O)[C@@H](NC(=O)[C@H](CCCNC(=N)N)NC(=O)[C@H](CCC(=O)O)NC(=O)[C@H](CCSC)NC(=O)[C@H](CO)NC(=O)[C@H](CC(N)=O)NC(=O)[C@H](CC(C)C)NC(=O)[C@H](Cc3c[nH]cn3)NC(=O)[C@H](CCCCN)NC(=O)CNC(=O)[C@H](CC(C)C)NC(=O)[C@H](CC(N)=O)NC(=O)[C@H](Cc3c[nH]cn3)NC(=O)[C@H](CCSC)NC(=O)[C@H](CC(C)C)NC(=O)[C@H](CCC(N)=O)NC(=O)[C@@H](NC(=O)[C@H](CCC(=O)O)NC(=O)[C@H](CO)NC(=O)[C@@H](NC(=O)[C@@H](N)CO)C(C)C)[C@@H](C)CC)C(C)C)C(C)C)C(=O)O)C2=O)C/C1=C/C=C1\CCC[C@]2(C)[C@@H]([C@H](C)CCCC(C)(C)O)CC[C@@H]12 (some centres unmarked) [EXT607] yielded an AUC(0-inf) ([1]; 30 ug/kg, single 30 μg/kg SC) of 186 ng·h/mL, an MRT ([1]; 30 ug/kg, single 30 μg/kg SC) of 15.9 h and a bioavailability ([1]; 30 ug/kg, single 30 μg/kg SC, read-out: Bioavailability) of 12.9%. It also gave an AUC(0-inf) ([1]; 100 ug/kg, single 100 μg/kg IV) of 4390 ng·h/mL, a C0 ([1]; 100 ug/kg, single 100 μg/kg IV) of 2860 ng/mL and an MRT ([1]; 100 ug/kg, single 100 μg/kg IV) of 3.49 h. The Vd ([1]; 100 ug/kg, single 100 μg/kg IV, read-out: VZ) was 0.304 L/kg, the AUC(0-inf) ([1]; 100 ug/kg, single 100 μg/kg SC) was 472 ng·h/mL and the MRT ([1]; 100 ug/kg, single 100 μg/kg SC) was 13.7 h. It also gave a bioavailability ([1]; 100 ug/kg, single 100 μg/kg SC, read-out: Bioavailability) of 10.7%, a half-life ([1]; 300 ug/kg, SC 30, 100 or 300 μg/kg, read-out: half-life) of 7 to 15 h and an AUC(0-inf) ([1]; 300 ug/kg, single 300 μg/kg SC) of 1290 ng·h/mL. The MRT ([1]; 300 ug/kg, single 300 μg/kg SC) was 13.6 h, the bioavailability ([1]; 300 ug/kg, single 300 μg/kg SC, read-out: Bioavailability) was 9.67% and the half-life ([1]; sc, rats, after subcutaneous dosing, read-out: terminal half-life) was 8 to 15 h. For the same molecule, the bioavailability ([1]; male rats, based on AUC vs intravenous injection, across SC doses, read-out: subcutaneous bioavailability (% F)) was 10 to 13%, the “dose-adjusted AUC ratio” value [2, 4] was 0.95 and the “dose-adjusted Cmax ratio” value [2, 4] was 0.28. For the same molecule, the “dose-adjusted AUC ratio” value [2, 5] was 0.85, the “dose-adjusted Cmax ratio” value [2, 5] was 0.55 and the “dose-adjusted AUC ratio” value ([2]; 70 μg/kg SC (reference)) was 1.00. For the same molecule, the “dose-adjusted Cmax ratio” value ([2]; 70 μg/kg SC (reference)) was 1.00, the half-life ([2]; in vivo, sc, NHP, after subcutaneous dosing, read-out: terminal half-life) was 24 to 32 h and the AUC(0-inf) [2, 6] was 483 ng·h/mL. The MRT [2, 6] was 29.5 h, the half-life ([2]; in vivo, 7 ug/kg, single 7 μg/kg SC, read-out: t1/2 (converted)) was 24 h and the AUC(0-inf) [2, 7] was 2850 ng·h/mL. For the same molecule, the C0 [2, 7] was 782 ng/mL, the MRT [2, 7] was 11.2 h and the Vd ([2]; in vivo, 20 ug/kg, single 20 μg/kg IV, read-out: VZ) was 0.34 L/kg. It also gave a half-life ([2]; in vivo, 20 ug/kg, single 20 μg/kg IV, read-out: t1/2 (converted)) of 32.3 h, an AUC(0-inf) [2, 8] of 1290 ng·h/mL and an AUC(0-t) [2, 8] of 1160 ng·h/mL. For the same molecule, the MRT [2, 8] was 23.3 h, the half-life ([2]; in vivo, 20 ug/kg, single 20 μg/kg SC, read-out: t1/2 (converted)) was 24.3 h and the AUC(0-inf) [2, 9] was 5300 ng·h/mL. It also gave an MRT [2, 9] of 17.5 h, a half-life ([2]; in vivo, 70 ug/kg, single 70 μg/kg SC, read-out: t1/2 (converted)) of 27.7 h and a bioavailability ([2]; in vivo, across SC doses, read-out: bioavailability when delivered subcutaneously) of 45 to 54%. For the same molecule, the half-life ([2]; in vivo, across doses, read-out: t1/2 of elimination) was 24 to 32 h.

In the case of CC[C@H](C)[C@H](NC(=O)[C@H](CCC(=O)O)NC(=O)[C@H](CO)NC(=O)[C@@H](NC(=O)[C@@H](N)CO)C(C)C)C(=O)N[C@@H](CCC(N)=O)C(=O)N[C@@H](CC(C)C)C(=O)N[C@@H](CCSC)C(=O)N[C@@H](Cc1c[nH]cn1)C(=O)N[C@@H](CC(N)=O)C(=O)N[C@@H](CC(C)C)C(=O)NCC(=O)N[C@@H](CCCCN)C(=O)N[C@@H](Cc1c[nH]cn1)C(=O)N[C@@H](CC(C)C)C(=O)N[C@@H](CC(N)=O)C(=O)N[C@@H](CO)C(=O)N[C@@H](CCSC)C(=O)N[C@@H](CCC(=O)O)C(=O)N[C@@H](CCCNC(=N)N)C(=O)N[C@H](C(=O)N[C@@H](CCC(=O)O)C(=O)N[C@@H](Cc1c[nH]c2ccccc12)C(=O)N[C@@H](CC(C)C)C(=O)N[C@@H](CCCNC(=N)N)C(=O)N[C@@H](CCCCN)C(=O)N[C@@H](CCCCN)C(=O)N[C@@H](CC(C)C)C(=O)N[C@@H](CCC(N)=O)C(=O)N[C@@H](CC(=O)O)C(=O)N[C@H](C(=O)N[C@@H](Cc1c[nH]cn1)C(=O)N[C@@H](CC(N)=O)C(=O)N[C@@H](Cc1ccccc1)C(=O)O)C(C)C)C(C)C [PTH(1-34), reference compound], the “% Decrease in Serum Phosphate, Daily Average” value (from here on “% Decrease … Daily Average”) [3, 10] is reported as −1.7%, the “% Increase in Serum Calcium, Daily Average” value [3, 10] is reported as 8.0% and the “% Decrease … Daily Average” value [3, 11] is reported as 9.1%. The “% Increase in Serum Calcium, Daily Average” value [3, 11] was 12%, the “% Decrease … Daily Average” value [3, 12] was 13% and the “% Increase in Serum Calcium, Daily Average” value [3, 12] was 6.4%. For the same molecule, the “% Increase in Serum Calcium, Cumulative” value ([3]; 10 nmol/kg SC daily) was 9% and 8.7%, the “increase in serum calcium compared to TPTx controls (in words)” value [3] was “minimal and did not reach statistical significance” and the “decrease in serum phosphate (in words)” value [3] was “Occasional decreases”.

B1: PTH(1-84): wild-type full-length parathyroid hormone, 84 amino acids, SEQ ID NO: 2 (protein, UniProt P01270 32-115, looked up)
Parathyroid hormone: SVSEIQLMHNLGKHLNSMERVEWLRKKLQDVHNFVALGAPLAPRDAGSQRPRKKEDNVLVESHEKSLGEADKADVNVLTKAKSQ
modifications: Parathyroid hormone
For B1, the “% Decrease … Daily Average” value [3, 10] was 0.2%, the “% Increase in Serum Calcium, Daily Average” value [3, 10] was 7.0% and the “% Decrease … Daily Average” value [3, 11] was 17%. The “% Increase in Serum Calcium, Daily Average” value [3, 11] was 14%, the “% Decrease … Daily Average” value [3, 12] was 17% and the “% Increase in Serum Calcium, Daily Average” value [3, 12] was 4.1%. The “% Increase in Serum Calcium, Cumulative” value ([3]; 10 nmol/kg SC daily) was 9% and 8.5%, the “% Decrease in Serum Phosphate, Combined” value ([3]; 10 nmol/kg SC daily, Days 12, 27, relative to TPTx/vehicle) was 17% and the “increase in serum calcium compared to TPTx controls (in words)” value [3] was “minimal and did not reach statistical significance with the exception of two isolated timepoints”. The “decrease in serum phosphate (in words)” value [3] was “Slight decreases”.
